Measured values as given in paper PMC10465527.

Target: B55α/δ regulatory subunit of PP2A (human (endogenous in HAP1)) (UniProt P63151)
Assay: co-IP; B56α (1D3-E12) or B55α/δ (2G9) antibody crosslinked to protein G-Sepharose, 1 h with lysates of HAP1 wild-type and lcmt1-/- cells; lysis buffer 10% glycerol, 135 mM NaCl, 20 mM Tris pH 8.0, 1% Nonidet P-40; immunoblot, co-precipitated A and C normalised to the B subunit

Sequence of UniProt P63151 (P63151 whole entry, stated change not applied): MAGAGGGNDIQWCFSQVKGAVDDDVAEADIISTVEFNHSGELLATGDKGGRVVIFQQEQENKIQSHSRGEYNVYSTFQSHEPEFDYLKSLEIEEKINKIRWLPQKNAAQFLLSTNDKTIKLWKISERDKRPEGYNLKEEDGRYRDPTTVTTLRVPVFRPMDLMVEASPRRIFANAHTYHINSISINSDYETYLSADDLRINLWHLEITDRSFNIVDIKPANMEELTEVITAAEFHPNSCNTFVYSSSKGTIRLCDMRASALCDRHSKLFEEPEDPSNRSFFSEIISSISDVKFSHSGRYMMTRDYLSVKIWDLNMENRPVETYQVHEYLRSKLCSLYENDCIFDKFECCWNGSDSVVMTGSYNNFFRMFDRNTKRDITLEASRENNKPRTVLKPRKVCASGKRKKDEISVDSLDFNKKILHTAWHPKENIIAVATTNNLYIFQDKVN

trimeric holoenzyme level relative to wild-type cells (of the levels in wild-type cells): 0.33
Substance: non-methylated PP2A-C (catalytic C subunit of PP2A) (from UniProt P67775 1-309) (natural protein)
